Source: publication PMC8373988, “Structures of a deAMPylation complex rationalise the switch between antagonistic catalytic activities of FICD” (Nature Communications, 2021)
Changes are numbered by the printed parent chain. Names and notes keep the numbering of the source. Blank lines part the entries; values can stand above or below the binder they belong to.

Key:
[1] = biological target: T1, AMPylated biotinylated-AviTag-haBiP^T229A-V461F (residues 27–635) (Chinese hamster, UniProt G3I8R9 27-635, T229A | V461F, AMP covalently attached to Thr518 (Thr518-AMP); biotin on the N-terminal Avi-tag); test: BLI; biotinylated BiP or BiP-AMP immobilised on streptavidin biosensors, activated in 2 mM ATP for 200 s; apo FICD analytes at 50 nM unless otherwise specified; HKM with 0.05% Triton X-100, 30 °C; second dissociation step with 2 mM ATP; settings: both partners purified
T1 construct: Chinese hamster BiP residues 27–635; identical to human BiP over this range; A GS linker stands between the Avi-tag and BiP residue 27; also called AMPylated BiP; BiP-AMP; source: E. coli, purified; AMPylated in vitro with GST-TEV-FICD^E234G, biotinylated in vitro with GST-BirA, made nucleotide-free, MonoQ; not shown: His6-Smt3, N-terminal, cleaved; Avi-tag (biotinylated), N-terminal, kept

[2] = biological target: T2, biotinylated-AviTag-haBiP^T229A-V461F (residues 27–635), unmodified (Chinese hamster, UniProt G3I8R9 27-635, T229A | V461F, biotin on the N-terminal Avi-tag); test: as above; settings: both partners purified
T2 construct: Chinese hamster BiP residues 27–635; identical to human BiP over this range; A GS linker stands between the Avi-tag and BiP residue 27; also called unmodified BiP; BiP:ATP; source: E. coli, purified; biotinylated in vitro with GST-BirA, made nucleotide-free, MonoQ; not shown: His6-Smt3, N-terminal, cleaved; Avi-tag (biotinylated), N-terminal, kept

[3] = biological target: T3, lid-truncated BiP^T229A-V461F-AMP (residues 27–549) (Chinese hamster, UniProt G3I8R9 27-549, T229A | V461F, AMP covalently attached to Thr518 (Thr518-AMP)); test: crystal structure; heterodimer copurified by gel filtration (FICD:BiP-AMP mixed 1.5:1 with 250 µM ATP, 50 mM KCl, 2 mM MgCl2; TNKMT buffer), sitting drop vapour diffusion at 25 °C; two crystal forms (state 1, state 2); settings: both partners purified
T3 construct: Chinese hamster BiP residues 27–549 (all but helix A of SBDα removed); identical to human BiP over this range; also called AMPylated BiP; BiP-AMP; source: E. coli, purified (Ni-NTA, Ulp1 cleavage, anion exchange, gel filtration); AMPylated in vitro with GST-TEV-FICD^E234G; not shown: His6-Smt3, N-terminal, cleaved

[4] = biological target: T4, BiP^T229A-V461F-AMP (residues 27–635), 'full-length' AMPylated BiP (Chinese hamster, UniProt G3I8R9 27-635, T229A | V461F, AMP covalently attached to Thr518 (Thr518-AMP)); test: contrast variation small-angle neutron scattering (SANS); complexes of partially deuterated and non-deuterated FICD^H363A and BiP-AMP copurified by gel filtration (1.25:1 BiP-AMP:FICD, 250 µM ATP) in TNKMT(0.2) at various %D2O; 4.3–5.5 mg/ml, 12 °C; settings: both partners purified
T4 construct: Chinese hamster BiP residues 27–635 (lacks the unstructured acidic N-terminal region and the C-terminal region with KDEL); identical to human BiP over this range; The deAMPylation assays used BiP^T229A-V461F (UK2521) AMPylated in vitro; also called full-length BiP-AMP; hBiP-AMP; source: E. coli, purified (Ni-NTA, Ulp1 cleavage, anion exchange, gel filtration); AMPylated in vitro with …

[5] = biological target: the molecule itself; test: as above
[6] = biological target: T2, biotinylated-AviTag-haBiP^T229A-V461F …; test: BLI; biotinylated nucleotide-free BiP (BiP:Apo) immobilised on streptavidin biosensor, before ATP activation; 16 µM TPR domain for 50 s; HKMTx, 30 °C; settings: both partners purified
[7] = biological target: T2, biotinylated-AviTag-haBiP^T229A-V461F …; test: BLI; biotinylated BiP immobilised on streptavidin biosensor, activated with 2 mM ATP (BiP:ATP); TPR domain 62.5 nM to 16 µM, 50 s association and 50 s dissociation; HKMTx, 30 °C; one-phase global fit and steady-state one site fit; settings: both partners purified

T2 sequence (G3I8R9 27-635 T229A/V461F): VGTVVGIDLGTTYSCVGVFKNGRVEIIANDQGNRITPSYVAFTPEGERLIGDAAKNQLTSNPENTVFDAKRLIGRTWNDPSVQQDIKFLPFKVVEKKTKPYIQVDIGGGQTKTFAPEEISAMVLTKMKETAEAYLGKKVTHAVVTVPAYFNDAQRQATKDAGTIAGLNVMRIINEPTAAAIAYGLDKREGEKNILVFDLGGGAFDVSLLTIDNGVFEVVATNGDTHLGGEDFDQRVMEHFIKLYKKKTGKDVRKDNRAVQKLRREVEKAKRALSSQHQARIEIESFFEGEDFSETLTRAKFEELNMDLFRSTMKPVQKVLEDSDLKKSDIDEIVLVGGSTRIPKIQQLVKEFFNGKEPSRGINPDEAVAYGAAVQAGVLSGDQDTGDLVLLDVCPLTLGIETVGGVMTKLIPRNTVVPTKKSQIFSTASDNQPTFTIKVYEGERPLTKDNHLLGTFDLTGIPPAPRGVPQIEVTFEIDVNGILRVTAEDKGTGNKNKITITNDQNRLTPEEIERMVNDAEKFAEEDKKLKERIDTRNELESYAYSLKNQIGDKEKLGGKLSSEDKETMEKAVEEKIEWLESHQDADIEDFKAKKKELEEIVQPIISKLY
T1 sequence (G3I8R9 27-635 T229A/V461F): as above
T3 sequence (G3I8R9 27-549 T229A/V461F): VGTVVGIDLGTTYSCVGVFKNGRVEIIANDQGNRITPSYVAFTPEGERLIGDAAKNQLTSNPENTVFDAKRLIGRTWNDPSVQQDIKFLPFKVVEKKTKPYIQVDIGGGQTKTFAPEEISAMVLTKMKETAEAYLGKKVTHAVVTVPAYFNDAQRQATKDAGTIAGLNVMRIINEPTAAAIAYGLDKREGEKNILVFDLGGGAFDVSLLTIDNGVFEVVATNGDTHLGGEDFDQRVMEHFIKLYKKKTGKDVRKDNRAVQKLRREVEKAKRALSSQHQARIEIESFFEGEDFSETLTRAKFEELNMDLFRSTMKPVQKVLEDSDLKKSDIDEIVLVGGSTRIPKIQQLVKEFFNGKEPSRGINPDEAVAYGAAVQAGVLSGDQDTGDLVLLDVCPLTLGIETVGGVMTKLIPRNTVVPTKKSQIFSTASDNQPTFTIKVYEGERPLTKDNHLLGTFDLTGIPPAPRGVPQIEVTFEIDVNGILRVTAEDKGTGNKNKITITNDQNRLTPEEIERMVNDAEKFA
T4 sequence (G3I8R9 27-635 T229A/V461F): as the sequence (G3I8R9 27-635 T229A/V461F) above

binding result [4]: binds
binding result [1]: binds
binding result [2]: binds
B5: FICD^H363A (residues 104–445), dimeric, catalytically inactive (enzyme, human, UniProt Q9BVA6 104-445, looked up)
chain: LEARAALNQALEMKRQGKREKAQKLFMHALKMDPDFVDALTEFGIFSEEDKDIIQADYLYTRALTISPYHEKALVNRDRTLPLVEEIDQRYFSIIDSKVKKVMSIPKGNSALRRVMEETYYHHIYHTVAIEGNTLTLSEIRHILETRYAVPGKSLEEQNEVIGMHAAMKYINTTLVSRIGSVTISDVLEIHRRVLGYVDPVEAGRFRTTQVLVGHHIPPHPQDVEKQMQEFVQWLNSEEAMNLHPVEFAALAHYKLVYIAPFIDGNGRTSRLLMNLILMQAGYPPITIRKEQRSDYYHVLEAANEGDVRPFIRFIAKCTETTLDTLLFATTEYSVALPEAQP
notes: human FICD, predicted structured regions, residues 104–445; also called dimeric FICD; dimeric FICD^H363A; source: E. coli, purified (Ni-NTA, on-bead Ulp1 cleavage, anion exchange, gel filtration); matchout-deuterated form from E. coli BL21 Star (DE3), purified; not shown: His6-Smt3, N-terminal, cleaved
binding result [5]: binds

Kd [6]: > 160000 nM
Kd [7]: 1100 nM
B6: isolated TPR domain of FICD (domain or fragment)
chain: LEARAALNQALEMKRQGKREKAQKLFMHALKMDPDFVDALTEFGIFSEEDKDIIQADYLYTRALTISPYH

The next lines start with the binder.

B1: FICD^L258D-H363A (residues 104–445), monomeric, catalytically inactive (enzyme, human, UniProt Q9BVA6 104-445, looked up)
chain: B5 chain with L155D
notes: human FICD, predicted structured regions, residues 104–445; L258D makes FICD monomeric; H363A traps the deAMPylation substrate; also called monomeric FICD^L258D-H363A; UK2093; source: E. coli, purified (Ni-NTA, on-bead Ulp1 cleavage, anion exchange, gel filtration); not shown: His6-Smt3, N-terminal, cleaved
binding result [1]: binds
binding result [2]: binds
binding result [3]: binds

B2: dimeric FICD^H363A(TPRred): FICD^D160C-T183C-H363A-C421S, cysteines reduced (enzyme, human, UniProt Q9BVA6 104-445, looked up)
chain: B5 chain with D57C, T80C, C318S
notes: human FICD residues 104–445; The cysteine-reduced form of m11; also called TPRred (dimeric); source: E. coli, purified; not shown: His6-Smt3, N-terminal, cleaved
binding result [1]: binds

B3: dimeric FICD^H363A(TPRox): FICD^D160C-T183C-H363A-C421S, oxidised (enzyme, human, UniProt Q9BVA6 104-445, looked up)
chain: B5 chain with D57C, T80C, C318S
modifications: intramolecular disulfide bond between Cys160 and Cys183
notes: human FICD residues 104–445; also called TPRox (dimeric); source: E. coli, purified; oxidised with CuSO4 and 1,10-phenanthroline, Capto Q, RESOURCE Q, gel filtration; not shown: His6-Smt3, N-terminal, cleaved
binding result [1]: binds

B4: monomeric FICD^L258D-H363A(TPRox): FICD^D160C-T183C-L258D-H363A-C421S, oxidised (enzyme, human, UniProt Q9BVA6 104-445, looked up)
chain: B5 chain with D57C, T80C, L155D, C318S
modifications: intramolecular disulfide bond between Cys160 and Cys183
notes: human FICD residues 104–445; PDB entries hold the parent m1; also called TPRox (monomeric); source: E. coli, purified; oxidised with CuSO4 and 1,10-phenanthroline, Capto Q, RESOURCE Q, gel filtration; not shown: His6-Smt3, N-terminal, cleaved
binding result [1]: binds
binding result [2]: binds
